Measurements published in patent US7026443.

Target: HLA-A*0201 (human)
Details: not given

Row | Binder | relative binding ratio (IC50 of standard peptide / IC50 of test peptide) (ratio to standard peptide) | relative binding ratio (IC50 of standard peptide / IC50 of test peptide) | binding affinity ratio (IC50 of the standard peptide / IC50 of the test peptide) | binding affinity ratio (IC50 of standard peptide / IC50 of test peptide)
1 | TLSFVCPWCA (modifications not checked) [HPV18 E7 peptide … (position 93, 10 amino acids)] | 0.0027 |  |  | 
2 | TLEQQYNKPL (modifications not checked) [HPV16 E6 peptide … (position 94, 10 amino acids)] |  | 0.0001 |  | 
3 | VMGDTPEWI (modifications not checked) [HPV18 E1 339 peptide … (SEQ ID NO: 3614)] |  | 0.007 |  | 
4 | KLRSTAAAL (modifications not checked) [HPV31 E1 peptide … (position 291, 9 amino acids)] | 0.0003 |  |  | 
5 | DLLCHEQL (modifications not checked) [HPV18 E7 peptide DLLCHEQL (position 24)] |  | 0.0001 |  | 
6 | FILYAHIQCL (modifications not checked) [HPV18 E1 peptide … (position 265, 10 amino acids)] |  |  | 0.032 | 
7 | EITCVYCKTV (modifications not checked) |  |  | 0.0002 | 
8 | EVFEFAFKDL (modifications not checked) [HPV18 E6 peptide … (position 43)] |  | 0.0009 |  | 
9 | FAFRDLCIV (modifications not checked) [HPV16 E6 52 …] |  |  |  | 0.051
10 | PVDLLCHEQL (modifications not checked) [HPV18 E7 peptide … (position 22, 10 amino acids)] | 0.0001 |  |  | 
11 | ALYWYRTGI (modifications not checked) [HPV18 E1 325 peptide …] | 0.0032 |  |  | 
12 | CVYCKTVLEL (modifications not checked) [HPV18 E6 32 …] |  |  | 0.0001 | 
13 | DIRTLEDLL (modifications not checked) [HPV16 E7 peptide … (position 75, 9 amino acids)] |  | 0.0003 |  | 
14 | QLCTELQTTI (modifications not checked) [HPV16 E6 peptide … (position 21, 10 amino acids)] |  | 0.0012 |  | 
15 | TLSFVCPWCA (modifications not checked) [HPV45 E7 peptide … (position 94, 10 amino acids)] | 0.0027 |  |  | 
16 | FLGALKSFL (modifications not checked) [HPV18 E1 peptide … (position 463, 9 amino acids)] |  |  | 0.045 | 
17 | ALDGNPISI (modifications not checked) [HPV18 E1 546 peptide …] | 0.021 |  |  | 
18 | PLNPAEKLRHL (modifications not checked) [HPV18 E6 peptide … (position 111)] |  | 0.0001 |  | 
19 | FLKSNSQAKI (modifications not checked) [HPV31 E1 372 peptide … (SEQ ID NO: 4704)] | 0.0011 |  |  | 
20 | FLRYQQIEFI (modifications not checked) [HPV18 E1 peptide … (position 452, 10 amino acids)] |  |  | 0.0025 | 
21 | QLFLNTLSFV (modifications not checked) [HPV18 E7 peptide … (position 88, 10 amino acids as printed)] | 0.11 |  |  | 
22 | VVYRDSIPHA (modifications not checked) [HPV18 E6 peptide … (position 54)] |  | 0.0003 |  | 
23 | FAFKDLFVV (modifications not checked) [HPV18 E6 peptide … (position 47)] |  | 0.085 |  | 
24 | GLYNLLIRCL (modifications not checked) [HPV18 E6 peptide … (position 97)] |  | 0.0036 |  | 
25 | ALDGNLVSM (modifications not checked) [HPV16 E1 … (position 539)] |  | 0.027 |  | 
26 | ILECVYCKQQL (modifications not checked) [HPV16 E6 34 …] |  |  |  | 0.0004
27 | GTLGIVCPI (modifications not checked) [HPV16 E7 peptide … (position 85, 9 amino acids)] |  | 0.021 |  | 
28 | FVNSTSHFWL (modifications not checked) [HPV18 E1 peptide … (position 508, 10 amino acids)] |  |  | 0.062 | 
29 | CVYCKTVL (modifications not checked) [HPV18 E6 32 CVYCKTVL] |  |  | 0.0002 | 
30 | FLKSNSQAKI (modifications not checked) [HPV33 E1 peptide … (position 385, 10 amino acids)] | 0.0011 |  |  | 

Same assay, conditions: remark: other sources report otherwise

Row | Binder | relative binding ratio (IC50 of standard peptide / IC50 of test peptide) | binding affinity ratio (IC50 of the standard peptide / IC50 of the test peptide)
31 | KLPDLCTEL (modifications not checked) [HPV45 E6 peptide … (position 13, 9 amino acids)] | 0.0035 | 
32 | KLPDLCTEL (modifications not checked) [HPV18 E6 peptide … (position 13)] | 0.0035 | 
33 | EITCVYCKT (modifications not checked) |  | 0.0001
34 | ELTEVFEFA (modifications not checked) [HPV18 E6 peptide … (position 40)] | 0.0012 | 
35 | QLCTELQTT (modifications not checked) [HPV16 E6 peptide … (position 21, 9 amino acids)] | 0.0001 | 

Target: HLA-A*0301 (human)
Details: not given

Row | Binder | binding affinity ratio (IC50 of standard peptide / IC50 of test peptide) (ratio to standard peptide) | binding affinity ratio (IC50 of standard peptide / IC50 of test peptide)
36 | KDCATMCRH (modifications not checked) | 0.0011 | 
37 | MSFLTALKR (modifications not checked) [HPV16 E1 454 …] |  | 0.087
38 | MMIEPPKLR (modifications not checked) [HPV16 E1 305 …] |  | 0.001
39 | LLVRYKCGK (modifications not checked) [HPV16 E1 277 …] |  | 0.0043
40 | GVSFSELVR (modifications not checked) [HPV16 E1 216 …] | 0.0011 | 
41 | LVRPFKSNK (modifications not checked) [HPV16 E1 222 …] |  | 0.07
42 | KDCATMCRHY (modifications not checked) | 0.0005 | 

Target: HLA-A*1101 (human)
Details: not given

Row | Binder | relative binding ratio (IC50 of standard peptide / IC50 of test peptide) | binding affinity ratio (IC50 of standard peptide / IC50 of test peptide) | binding affinity ratio (IC50 of standard peptide / IC50 of test peptide) (ratio to standard peptide)
43 | CATMCKHYR (modifications not checked) [HPV18 E1 412-420 peptide …] | 0.011 |  | 
44 | LVRNFKSDK (modifications not checked) [HPV18 E1 229 …] |  | 0.0002 | 
45 | LIRCINCQK (modifications not checked) [… (HPV16 E6, position 107, 9 amino acids)] |  |  | 0.0009
46 | DIEITCVYCK (modifications not checked) [HPV18 E6 27 …] |  | 0.0021 | 
47 | QMNMSQWIR (modifications not checked) [HPV18 E1 426 …] |  | 0.0023 | 
48 | MLIQPPKLR (modifications not checked) [HPV18 E1 312 …] |  | 0.0014 | 
49 | KFYSKISEYR (modifications not checked) [… (HPV16 E6, position 75, 10 amino acids)] |  |  | 0.0002
50 | KDCATMCRH (modifications not checked) | 0.0002 |  | 
51 | NSNAAAFLK (modifications not checked) [HPV18 E1 393 …] |  | 0.37 | 
52 | LLIRCLRCQK (modifications not checked) [HPV18 E6 101 …] |  | 0.12 | 
53 | LIRCLRCQK (modifications not checked) [HPV18 E6 102 …] |  | 0.0012 | 
54 | EVFEFAFK (modifications not checked) [HPV18 E6 43 EVFEFAFK] |  | 0.018 | 
55 | FITFLGALK (modifications not checked) [HPV18 E1 460-468 peptide …] | 0.037 |  | 
56 | TTLEQQYNK (modifications not checked) [… (HPV16 E6, position 93, 9 amino acids)] | 0.29 |  | 
57 | MSFLTALKR (modifications not checked) [HPV16 E1 454 …] |  |  | 0.098
58 | NMSQWIRFR (modifications not checked) [HPV18 E1 428 …] |  | 0.0012 | 
59 | MMIEPPKLR (modifications not checked) [HPV16 E1 305 …] |  |  | 0.0086
60 | LLVRYKCGK (modifications not checked) [HPV16 E1 277 …] |  |  | 0.0033
61 | LLIRCINCQK (modifications not checked) [… (HPV16 E6, position 106, 10 amino acids)] |  |  | 0.18
62 | GVSFSELVR (modifications not checked) [HPV16 E1 216 …] | 0.018 |  | 
63 | ALLRYKCGK (modifications not checked) [HPV18 E1 284-292 peptide …] | 0.14 |  | 
64 | DSVYGDTLEK (modifications not checked) [HPV18 E6 83 …] |  | 0.0051 | 
65 | CIDFYSRIR (modifications not checked) [HPV18 E6 68 …] |  | 0.0001 | 
66 | LVRPFKSNK (modifications not checked) [HPV16 E1 222 …] |  |  | 1.8
67 | SVAALYWYR (modifications not checked) [HPV18 E1 peptide … (position 322, 9 amino acids)] | 8.8 |  | 
68 | KDCATMCRHY (modifications not checked) | 0.0002 |  | 
